From the supplement of paper PMC10724198
± gives the standard deviation of the averaged measurements.

System: Saccharomyces cerevisiae
Assay: protein stability index of tFT-peptide fusion (C-terminal peptide) (PSI (0-1 scale)); higher = more stable (slower turnover)
Settings: temperature: 30 C
Protocol: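 MPS profiling in S. cerevisiae of the yeast C-terminome library: the last 12 aa of each annotated ORF are fused to the C-terminus of a sfGFP-mCherry timer, after a GGGS linker. Cells are FACS-sorted into 8 mCherry/sfGFP bins and deep-sequenced. PSI runs from 0 (unstable) to 1 (stable); wild type and das1Δ backgrounds, two technical replicates each.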

[1] = genetic background: das1 deletion

VSYFSIFSLFFF [YKL096C-B C-terminal 12 aa]
protein stability index [1]: 0.667 ± 0.047 | protein stability index (genetic background: wild type): 0.603 ± 0.016

VVDLIMEYLQDT [YDL057W C-terminal 12 aa]
protein stability index [1]: 0.699 ± 0.013 | protein stability index (genetic background: wild type): 0.741 ± 0.078

VVFLSVLKRNDL [YOL099C C-terminal 12 aa]
protein stability index [1]: 0.685 ± 0.031 | protein stability index (genetic background: wild type): 0.772 ± 0.11

VVPVLMGNMKVA [YEL073C C-terminal 12 aa]
protein stability index [1]: 0.69 ± 0.01 | protein stability index (genetic background: wild type): 0.634 ± 0.053

VWTLELSVIGVQ [WHI2 C-terminal 12 aa]
protein stability index [1]: 0.542 ± 0.011 | protein stability index (genetic background: wild type): 0.572 ± 0.011

WAINESEGYGFR [HUL4 C-terminal 12 aa]
protein stability index [1]: 0.727 ± 0.016 | protein stability index (genetic background: wild type): 0.708 ± 0.051

WAREQQKRQLSL [KAP95 C-terminal 12 aa]
protein stability index [1]: 0.725 ± 0.0096 | protein stability index (genetic background: wild type): 0.729 ± 0.019

WKEVLKFPKSFN [HXT15 C-terminal 12 aa]
protein stability index [1]: 0.724 ± 0.0077 | protein stability index (genetic background: wild type): 0.714 ± 0.031

WKKFIPKTWLSS [CQD2 C-terminal 12 aa]
protein stability index [1]: 0.7 ± 0.0086 | protein stability index (genetic background: wild type): 0.4878 ± 0.0047

WKKFLKFSKNSD [HXT13 C-terminal 12 aa]
protein stability index [1]: 0.7176 ± 0.0052 | protein stability index (genetic background: wild type): 0.685 ± 0.039

WKLLDDSELGWY [RGT1 C-terminal 12 aa]
protein stability index [1]: 0.836 ± 0.0089 | protein stability index (genetic background: wild type): 0.804 ± 0.052

WLKDQIIGEMTV [CAL4 C-terminal 12 aa]
protein stability index [1]: 0.696 ± 0.036 | protein stability index (genetic background: wild type): 0.678 ± 0.025

WPVTKPEDTKDN [ZWF1 C-terminal 12 aa]
protein stability index [1]: 0.699 ± 0.013 | protein stability index (genetic background: wild type): 0.67 ± 0.018

WRPQQPGQIEQA [YLR101C C-terminal 12 aa]
protein stability index [1]: 0.723 ± 0.03 | protein stability index (genetic background: wild type): 0.6668 ± 0.00094

WTKDLGCWSLYK [HIR1 C-terminal 12 aa]
protein stability index [1]: 0.716 ± 0.025 | protein stability index (genetic background: wild type): 0.6994 ± 0.0037

WTNYLEKESEKD [RUD3 C-terminal 12 aa]
protein stability index [1]: 0.711 ± 0.04 | protein stability index (genetic background: wild type): 0.693 ± 0.045

YAEGSLVKTEKL [FAA2 C-terminal 12 aa]
protein stability index [1]: 0.70242 ± 0.0001 | protein stability index (genetic background: wild type): 0.698 ± 0.016

YCFAKNDLFFNN [POM152 C-terminal 12 aa]
protein stability index [1]: 0.743 ± 0.014 | protein stability index (genetic background: wild type): 0.716 ± 0.011

YCPELGKTECFD [FMP30 C-terminal 12 aa]
protein stability index [1]: 0.691 ± 0.0061 | protein stability index (genetic background: wild type): 0.69 ± 0.0088

YDANGSSSTIKR [MAM3 C-terminal 12 aa]
protein stability index [1]: 0.736 ± 0.011 | protein stability index (genetic background: wild type): 0.7007 ± 0.00097

YDEIVPLMSDEE [ECM21 C-terminal 12 aa]
protein stability index [1]: 0.7035 ± 0.0035 | protein stability index (genetic background: wild type): 0.716 ± 0.057

YDLQALFKYFFS [ADY3 C-terminal 12 aa]
protein stability index [1]: 0.691 ± 0.011 | protein stability index (genetic background: wild type): 0.64 ± 0.022

YFKVFDWCKQKR [CLB6 C-terminal 12 aa]
protein stability index [1]: 0.681 ± 0.018 | protein stability index (genetic background: wild type): 0.684 ± 0.043

YISDHIWKTSSH [YOR302W C-terminal 12 aa]
protein stability index [1]: 0.743 ± 0.04 | protein stability index (genetic background: wild type): 0.698 ± 0.035

YKNRPNKEKDTL [STB6 C-terminal 12 aa]
protein stability index [1]: 0.693 ± 0.021 | protein stability index (genetic background: wild type): 0.688 ± 0.047

YKSKRNTPTMLS [ISU1 C-terminal 12 aa]
protein stability index [1]: 0.714 ± 0.027 | protein stability index (genetic background: wild type): 0.653 ± 0.026

YLARRKPSIELR [YPR170W-B C-terminal 12 aa]
protein stability index [1]: 0.716 ± 0.03 | protein stability index (genetic background: wild type): 0.7212 ± 0.0052

YLKNFFVKQKVV [ERP5 C-terminal 12 aa]
protein stability index [1]: 0.549 ± 0.0073 | protein stability index (genetic background: wild type): 0.16 ± 0.026

YLLENEPKDSFA [DCP1 C-terminal 12 aa]
protein stability index [1]: 0.703 ± 0.032 | protein stability index (genetic background: wild type): 0.731 ± 0.029

YLNCTEREALRP [AEP1 C-terminal 12 aa]
protein stability index [1]: 0.6794 ± 0.0038 | protein stability index (genetic background: wild type): 0.752 ± 0.076

YNIKRVLGVVYC [YAL067W-A C-terminal 12 aa]
protein stability index [1]: 0.345 ± 0.031 | protein stability index (genetic background: wild type): 0.362 ± 0.0077

YNPGLSMDFLTA [BCD1 C-terminal 12 aa]
protein stability index [1]: 0.6899 ± 0.0018 | protein stability index (genetic background: wild type): 0.714 ± 0.014

YNSLKKGASKSK [CNL1 C-terminal 12 aa]
protein stability index [1]: 0.714 ± 0.021 | protein stability index (genetic background: wild type): 0.74 ± 0.071

YNTTSITNSTSW [SRL1 C-terminal 12 aa]
protein stability index [1]: 0.711 ± 0.016 | protein stability index (genetic background: wild type): 0.722 ± 0.09

YPGAKTLTYTSR [CMI8 C-terminal 12 aa]
protein stability index [1]: 0.703 ± 0.013 | protein stability index (genetic background: wild type): 0.673 ± 0.01

YPTFDDNNFFAL [RFA2 C-terminal 12 aa]
protein stability index [1]: 0.732 ± 0.012 | protein stability index (genetic background: wild type): 0.717 ± 0.0086

YSDEASAQKKRF [RPS2 C-terminal 12 aa]
protein stability index [1]: 0.698 ± 0.0098 | protein stability index (genetic background: wild type): 0.709 ± 0.039

YTPDQGVSLIDL [ENT2 C-terminal 12 aa]
protein stability index [1]: 0.6978 ± 0.005 | protein stability index (genetic background: wild type): 0.7 ± 0.015

YTSWQTIKMWSQ [AVT3 C-terminal 12 aa]
protein stability index [1]: 0.658 ± 0.007 | protein stability index (genetic background: wild type): 0.654 ± 0.029

YVPPPTYTEMAS [ART10 C-terminal 12 aa]
protein stability index [1]: 0.7074 ± 0.0038 | protein stability index (genetic background: wild type): 0.66 ± 0.011

YVSHKGFITEDL [RPL9A C-terminal 12 aa]
protein stability index [1]: 0.689 ± 0.055 | protein stability index (genetic background: wild type): 0.679 ± 0.035
